Each binder was assayed against T1, recombinant human cardiac troponin T (human, UniProt P45379 2-298) (assay: SPR (Biacore T200, 37 C), Fab captured, cTnT analyte).
T1 construct: In the ECL assay the cTnT came from the Troponin T hs CalSet calibrator; also called cTnT; TnT
Procedure: Detailed kinetic investigations were performed at 37° C. on a GE Healthcare T200 instrument. A Biacore CM-5 series S sensor was mounted into the instrument and was preconditioned according to the manufacturer's instructions. The system buffer was HBS-ET (10 mM HEPES (pH 7.4), 150 mM NaCl, 1 mM EDTA, 0.05% (w/v) Tween® 20). The sample buffer was the system buffer supplemented with 1 mg/ml CMD (Carboxymethyldextran, Fluka). In one embodiment an anti-human antibody capture system was established on the CMS biosensor. GAHF(ab′)2, (goat anti human F(ab′)2) (Code Nr.: 109-005-097, lot #13.12.2005, Jackson Immuno Research) was immobilized according to the manufacturer's instructions using NHS/EDC chemistry. 30 μg/ml GAHF(ab′)2 in 10 mM sodium acetate buffer (pH 5.0) were preconcentrated to the flow cells 1, 2, 3 and 4 and were immobilized with 10.000 RU GAHF(ab′)2. The sensor was subsequently saturated with 1 M ethanolamine pH 8.5.
Chimeric anti-TnT antibody fragments were periplasmatically expressed in E. coli cells as described and were lyzed by methods known (for technical details see: Andersen, D. C. & Reilly, D. E. (2004); Production technologies for monoclonal antibodies and their fragments. Curr Opin Biotechnol 15, 456-62). The lysates were diluted 1:20 in sample buffer. Fab fragments were captured via their humanized framework regions from the expression lysates on the biosensor at a flow rate of 10 μl/min for 1 min followed by a 2 min washing step with 10-fold concentrated HBS-EP buffer at 30 μl/min. The Fab fragment capture level (CL) in response units (RU) was monitored. Recombinant human TnT (Roche, 37 kDa) was diluted in sample buffer at 90 nM and a concentration series was produced with […], 30 nM, 11 nM, 3.3 nM, 1.1 nM, 0 nM, 3.3 nM TnT concentration. The analyte concentration series were 80 μl/min for 3 min association phase and the dissociation phase was monitored for 3 min.
The kinetic parameters ka [1/Ms], kd [1/s], t1/2 diss [min], KD [M] and the binding stoichiometry (Molar Ratio) (for details see: Schraeml, M. & Biehl, M. (2012); Kinetic screening in the antibody development process. Methods Mol Biol 901, 171-81.) of the cTnT analyte were determined for each Fab fragment mutant with the Biaevaluation Software (GE healthcare) according to the manufacturer's instructions.

Binder | Kd | MR (Molar Ratio) | koff | kon | t/2-diss
parental anti-cTnT Fab fragment (wildtype TnT M-7 Fab, from antibody 12.1A11.11-7) (Fab, V domains shown, also called wildtype Fab; TnT M-7 (wildtype) Fab) VH: EVQLQQSGPELVKPGASVKMSCKASGYTFTDYYMKWVKQSHGKSLEWIGDINPNNGETFYNQKFKDKATLTVDKSSSTAYMQLNSLTSEDSAVYYCATRVFDYWGQGTTLTVSS VL: DIVLTQSPASLAVSLGQRATISCKASQSVDYDGTSYMNWFQQKAGQPPKRLIYAASNLESGIPARFSGRGSGTDFALNIHPVEEEDAATYYCQQSNEDPYTFGGGTKLEIK | 0.58 nM | 0.6 | 0.0014 s⁻¹ | 2.5e+06 M⁻¹ s⁻¹ | 8 min
anti-cTnT Fab mutant 2 (Y34F, F60W) (Fab, V domains shown, also called combination 2) VH: EVQLQQSGPELVKPGASVKMSCKASGYTFTDYFMKWVKQSHGKSLEWIGDINPNNGETWYNQKFKDKATLTVDKSSSTAYMQLNSLTSEDSAVYYCATRVFDYWGQGTTLTVSS VL: DIVLTQSPASLAVSLGQRATISCKASQSVDYDGTSYMNWFQQKAGQPPKRLIYAASNLESGIPARFSGRGSGTDFALNIHPVEEEDAATYYCQQSNEDPYTFGGGTKLEIK | 0.46 nM | 0.7 | 0.001 s⁻¹ | 2.2e+06 M⁻¹ s⁻¹ | 11 min
anti-cTnT Fab mutant 5 (Y34F, F60W, V101Y + Y104F) (Fab, V domains shown, also called combination 5) VH: EVQLQQSGPELVKPGASVKMSCKASGYTFTDYFMKWVKQSHGKSLEWIGDINPNNGETWYNQKFKDKATLTVDKSSSTAYMQLNSLTSEDSAVYYCATRYFDFWGQGTTLTVSS VL: DIVLTQSPASLAVSLGQRATISCKASQSVDYDGTSYMNWFQQKAGQPPKRLIYAASNLESGIPARFSGRGSGTDFALNIHPVEEEDAATYYCQQSNEDPYTFGGGTKLEIK | 0.23 nM | 0.7 | 0.00057 s⁻¹ | 2.4e+06 M⁻¹ s⁻¹ | 20 min
anti-cTnT Fab mutant 3 (Y34F, F60W, V101Y) (Fab, V domains shown, also called combination 3) VH: EVQLQQSGPELVKPGASVKMSCKASGYTFTDYFMKWVKQSHGKSLEWIGDINPNNGETWYNQKFKDKATLTVDKSSSTAYMQLNSLTSEDSAVYYCATRYFDYWGQGTTLTVSS VL: DIVLTQSPASLAVSLGQRATISCKASQSVDYDGTSYMNWFQQKAGQPPKRLIYAASNLESGIPARFSGRGSGTDFALNIHPVEEEDAATYYCQQSNEDPYTFGGGTKLEIK | 0.37 nM | 0.7 | 0.00079 s⁻¹ | 2.1e+06 M⁻¹ s⁻¹ | 15 min
anti-cTnT Fab mutant 7 (Y34F, Y104F) (Fab, V domains shown, also called combination 7) VH: EVQLQQSGPELVKPGASVKMSCKASGYTFTDYFMKWVKQSHGKSLEWIGDINPNNGETFYNQKFKDKATLTVDKSSSTAYMQLNSLTSEDSAVYYCATRVFDFWGQGTTLTVSS VL: DIVLTQSPASLAVSLGQRATISCKASQSVDYDGTSYMNWFQQKAGQPPKRLIYAASNLESGIPARFSGRGSGTDFALNIHPVEEEDAATYYCQQSNEDPYTFGGGTKLEIK | 0.45 nM | 0.7 | 0.0011 s⁻¹ | 2.4e+06 M⁻¹ s⁻¹ | 11 min
anti-cTnT Fab mutant 8 (Y34F, V101Y + Y104F) (Fab, V domains shown, also called combination 8) VH: EVQLQQSGPELVKPGASVKMSCKASGYTFTDYFMKWVKQSHGKSLEWIGDINPNNGETFYNQKFKDKATLTVDKSSSTAYMQLNSLTSEDSAVYYCATRYFDFWGQGTTLTVSS VL: DIVLTQSPASLAVSLGQRATISCKASQSVDYDGTSYMNWFQQKAGQPPKRLIYAASNLESGIPARFSGRGSGTDFALNIHPVEEEDAATYYCQQSNEDPYTFGGGTKLEIK | 0.2 nM | 0.7 | 0.00052 s⁻¹ | 2.7e+06 M⁻¹ s⁻¹ | 22 min
anti-cTnT Fab mutant 9 (Y34I) (Fab, V domains shown, also called combination 9) VH: EVQLQQSGPELVKPGASVKMSCKASGYTFTDYIMKWVKQSHGKSLEWIGDINPNNGETFYNQKFKDKATLTVDKSSSTAYMQLNSLTSEDSAVYYCATRVFDYWGQGTTLTVSS VL: DIVLTQSPASLAVSLGQRATISCKASQSVDYDGTSYMNWFQQKAGQPPKRLIYAASNLESGIPARFSGRGSGTDFALNIHPVEEEDAATYYCQQSNEDPYTFGGGTKLEIK | 1.2 nM | 0.7 | 0.0023 s⁻¹ | 2e+06 M⁻¹ s⁻¹ | 5 min
anti-cTnT Fab mutant 1 (Y34F) (Fab, V domains shown, also called combination 1) VH: EVQLQQSGPELVKPGASVKMSCKASGYTFTDYFMKWVKQSHGKSLEWIGDINPNNGETFYNQKFKDKATLTVDKSSSTAYMQLNSLTSEDSAVYYCATRVFDYWGQGTTLTVSS VL: DIVLTQSPASLAVSLGQRATISCKASQSVDYDGTSYMNWFQQKAGQPPKRLIYAASNLESGIPARFSGRGSGTDFALNIHPVEEEDAATYYCQQSNEDPYTFGGGTKLEIK | 0.62 nM | 0.7 | 0.0014 s⁻¹ | 2.3e+06 M⁻¹ s⁻¹ | 8 min
anti-cTnT Fab mutant 4 (Y34F, F60W, Y104F) (Fab, V domains shown, also called combination 4) VH: EVQLQQSGPELVKPGASVKMSCKASGYTFTDYFMKWVKQSHGKSLEWIGDINPNNGETWYNQKFKDKATLTVDKSSSTAYMQLNSLTSEDSAVYYCATRVFDFWGQGTTLTVSS VL: DIVLTQSPASLAVSLGQRATISCKASQSVDYDGTSYMNWFQQKAGQPPKRLIYAASNLESGIPARFSGRGSGTDFALNIHPVEEEDAATYYCQQSNEDPYTFGGGTKLEIK | 0.27 nM | 0.7 | 0.00072 s⁻¹ | 2.7e+06 M⁻¹ s⁻¹ | 16 min

More lines, now with the values ahead:

Kd | MR (Molar Ratio) | koff | kon | t/2-diss | Binder
0.54 nM | 0.7 | 0.0016 s⁻¹ | 2.9e+06 M⁻¹ s⁻¹ | 7 min | anti-cTnT Fab mutant 17 (F60W) (Fab, V domains shown, also called combination 17) VH: EVQLQQSGPELVKPGASVKMSCKASGYTFTDYYMKWVKQSHGKSLEWIGDINPNNGETWYNQKFKDKATLTVDKSSSTAYMQLNSLTSEDSAVYYCATRVFDYWGQGTTLTVSS VL: DIVLTQSPASLAVSLGQRATISCKASQSVDYDGTSYMNWFQQKAGQPPKRLIYAASNLESGIPARFSGRGSGTDFALNIHPVEEEDAATYYCQQSNEDPYTFGGGTKLEIK
1 nM | 0.7 | 0.0022 s⁻¹ | 2.2e+06 M⁻¹ s⁻¹ | 5 min | anti-cTnT Fab mutant 11 (Y34I, F60W, V101Y) (Fab, V domains shown, also called combination 11) VH: EVQLQQSGPELVKPGASVKMSCKASGYTFTDYIMKWVKQSHGKSLEWIGDINPNNGETWYNQKFKDKATLTVDKSSSTAYMQLNSLTSEDSAVYYCATRYFDYWGQGTTLTVSS VL: DIVLTQSPASLAVSLGQRATISCKASQSVDYDGTSYMNWFQQKAGQPPKRLIYAASNLESGIPARFSGRGSGTDFALNIHPVEEEDAATYYCQQSNEDPYTFGGGTKLEIK
0.32 nM | 0.5 | 0.00037 s⁻¹ | 1.18e+06 M⁻¹ s⁻¹ | 31 min | anti-cTnT Fab mutant 12 (Y34I, F60W, Y104F) (Fab, V domains shown, also called combination 12; combination "12") VH: EVQLQQSGPELVKPGASVKMSCKASGYTFTDYIMKWVKQSHGKSLEWIGDINPNNGETWYNQKFKDKATLTVDKSSSTAYMQLNSLTSEDSAVYYCATRVFDFWGQGTTLTVSS VL: DIVLTQSPASLAVSLGQRATISCKASQSVDYDGTSYMNWFQQKAGQPPKRLIYAASNLESGIPARFSGRGSGTDFALNIHPVEEEDAATYYCQQSNEDPYTFGGGTKLEIK
3.4 nM | 0.6 | 0.0059 s⁻¹ | 1.7e+06 M⁻¹ s⁻¹ | 2 min | anti-cTnT Fab mutant 16 (Y34I, V101Y + Y104F) (Fab, V domains shown, also called combination 16) VH: EVQLQQSGPELVKPGASVKMSCKASGYTFTDYIMKWVKQSHGKSLEWIGDINPNNGETFYNQKFKDKATLTVDKSSSTAYMQLNSLTSEDSAVYYCATRYFDFWGQGTTLTVSS VL: DIVLTQSPASLAVSLGQRATISCKASQSVDYDGTSYMNWFQQKAGQPPKRLIYAASNLESGIPARFSGRGSGTDFALNIHPVEEEDAATYYCQQSNEDPYTFGGGTKLEIK
1.1 nM | 0.7 | 0.0023 s⁻¹ | 2.2e+06 M⁻¹ s⁻¹ | 5 min | anti-cTnT Fab mutant 15 (Y34I, Y104F) (Fab, V domains shown, also called combination 15) VH: EVQLQQSGPELVKPGASVKMSCKASGYTFTDYIMKWVKQSHGKSLEWIGDINPNNGETFYNQKFKDKATLTVDKSSSTAYMQLNSLTSEDSAVYYCATRVFDFWGQGTTLTVSS VL: DIVLTQSPASLAVSLGQRATISCKASQSVDYDGTSYMNWFQQKAGQPPKRLIYAASNLESGIPARFSGRGSGTDFALNIHPVEEEDAATYYCQQSNEDPYTFGGGTKLEIK
0.62 nM | 0.7 | 0.0019 s⁻¹ | 3e+06 M⁻¹ s⁻¹ | 6 min | anti-cTnT Fab mutant 13 (Y34I, F60W, V101Y + Y104F) (Fab, V domains shown, also called combination 13) VH: EVQLQQSGPELVKPGASVKMSCKASGYTFTDYIMKWVKQSHGKSLEWIGDINPNNGETWYNQKFKDKATLTVDKSSSTAYMQLNSLTSEDSAVYYCATRYFDFWGQGTTLTVSS VL: DIVLTQSPASLAVSLGQRATISCKASQSVDYDGTSYMNWFQQKAGQPPKRLIYAASNLESGIPARFSGRGSGTDFALNIHPVEEEDAATYYCQQSNEDPYTFGGGTKLEIK

From patent US20210009668A1 (ROCHE DIAGNOSTICS OPERATIONS, published 2021)
